From patent publication US12201692B2, “Targeted protease compositions and uses related thereto” (Emory University, priority 2013, dated 2025)
Entries after “also recorded” stand apart in the source; their conditions may differ.

Assays:
[1] = Solubility of recombinant ATF fragments; type: physicochemical; details: compared to ATF 135 aa
Text: The amino terminal fragment (ATF, 135 aa) of uPA was used as a target ligand to develop uPAR-targeted theranostic IONPs. The yield and purity of recombinant ATF from bacterial cultures have been less than optimal due to the formation of undesirable aggregates. By removing of the hydrophobic amino acids that promote the formation of aggregates, uPAR targeting ligands (39 and 68 aa) with receptor-binding peptide regions were engineered as improvements.
In comparison with the full length ATF (135 aa), this short uPAR targeted ligand is an improved candidate to engineer the fusion targeting ligand ATF68-MMP14 with dual uPAR targeting and MMP14 protease activity.

[2] = target: uPAR (Homo sapiens, UniProt Q03405); assay: uPAR-targeting efficiency of ATF fragment; details: in comparison with the full length ATF (135 aa)
uPAR, sequence (Q03405 23-305): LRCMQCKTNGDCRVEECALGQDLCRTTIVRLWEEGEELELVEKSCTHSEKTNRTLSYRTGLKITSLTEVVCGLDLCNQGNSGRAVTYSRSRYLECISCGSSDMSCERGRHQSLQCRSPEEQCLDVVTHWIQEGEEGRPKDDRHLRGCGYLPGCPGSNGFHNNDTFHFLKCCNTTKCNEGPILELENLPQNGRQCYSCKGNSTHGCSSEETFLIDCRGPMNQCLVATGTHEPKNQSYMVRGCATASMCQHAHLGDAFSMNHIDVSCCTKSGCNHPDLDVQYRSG

- uPAR-targeting efficiency [2]: higher uPAR-targeting efficiency
B1: ATF68: uPA-ATF with only the growth factor domain, 68 aa uPAR targeting ligand (SEQ ID NO:2) (protein)
chain: SNELHQVPSNCDCLNGGTCVSNKYFSNIHWCNCPKKFGGQHCEIDKSKTCYEGNGHFYRGKASTDTMG
- solubility [1]: better solubility; also recorded: improved physiological solubility
